{
  "source": "patent US10660972B2",
  "about": "“Methods for coupling targeting peptides onto recombinant lysosomal enzymes for improved treatments of lysosomal storage diseases” (AMICUS THERAPEUTICS, INC., priority 2011, dated 2020)",
  "key": {"[1]": {"target": "IGF-2/CI-MPR (Homo sapiens, UniProt P11717)", "sequence (P11717 41-2491)": "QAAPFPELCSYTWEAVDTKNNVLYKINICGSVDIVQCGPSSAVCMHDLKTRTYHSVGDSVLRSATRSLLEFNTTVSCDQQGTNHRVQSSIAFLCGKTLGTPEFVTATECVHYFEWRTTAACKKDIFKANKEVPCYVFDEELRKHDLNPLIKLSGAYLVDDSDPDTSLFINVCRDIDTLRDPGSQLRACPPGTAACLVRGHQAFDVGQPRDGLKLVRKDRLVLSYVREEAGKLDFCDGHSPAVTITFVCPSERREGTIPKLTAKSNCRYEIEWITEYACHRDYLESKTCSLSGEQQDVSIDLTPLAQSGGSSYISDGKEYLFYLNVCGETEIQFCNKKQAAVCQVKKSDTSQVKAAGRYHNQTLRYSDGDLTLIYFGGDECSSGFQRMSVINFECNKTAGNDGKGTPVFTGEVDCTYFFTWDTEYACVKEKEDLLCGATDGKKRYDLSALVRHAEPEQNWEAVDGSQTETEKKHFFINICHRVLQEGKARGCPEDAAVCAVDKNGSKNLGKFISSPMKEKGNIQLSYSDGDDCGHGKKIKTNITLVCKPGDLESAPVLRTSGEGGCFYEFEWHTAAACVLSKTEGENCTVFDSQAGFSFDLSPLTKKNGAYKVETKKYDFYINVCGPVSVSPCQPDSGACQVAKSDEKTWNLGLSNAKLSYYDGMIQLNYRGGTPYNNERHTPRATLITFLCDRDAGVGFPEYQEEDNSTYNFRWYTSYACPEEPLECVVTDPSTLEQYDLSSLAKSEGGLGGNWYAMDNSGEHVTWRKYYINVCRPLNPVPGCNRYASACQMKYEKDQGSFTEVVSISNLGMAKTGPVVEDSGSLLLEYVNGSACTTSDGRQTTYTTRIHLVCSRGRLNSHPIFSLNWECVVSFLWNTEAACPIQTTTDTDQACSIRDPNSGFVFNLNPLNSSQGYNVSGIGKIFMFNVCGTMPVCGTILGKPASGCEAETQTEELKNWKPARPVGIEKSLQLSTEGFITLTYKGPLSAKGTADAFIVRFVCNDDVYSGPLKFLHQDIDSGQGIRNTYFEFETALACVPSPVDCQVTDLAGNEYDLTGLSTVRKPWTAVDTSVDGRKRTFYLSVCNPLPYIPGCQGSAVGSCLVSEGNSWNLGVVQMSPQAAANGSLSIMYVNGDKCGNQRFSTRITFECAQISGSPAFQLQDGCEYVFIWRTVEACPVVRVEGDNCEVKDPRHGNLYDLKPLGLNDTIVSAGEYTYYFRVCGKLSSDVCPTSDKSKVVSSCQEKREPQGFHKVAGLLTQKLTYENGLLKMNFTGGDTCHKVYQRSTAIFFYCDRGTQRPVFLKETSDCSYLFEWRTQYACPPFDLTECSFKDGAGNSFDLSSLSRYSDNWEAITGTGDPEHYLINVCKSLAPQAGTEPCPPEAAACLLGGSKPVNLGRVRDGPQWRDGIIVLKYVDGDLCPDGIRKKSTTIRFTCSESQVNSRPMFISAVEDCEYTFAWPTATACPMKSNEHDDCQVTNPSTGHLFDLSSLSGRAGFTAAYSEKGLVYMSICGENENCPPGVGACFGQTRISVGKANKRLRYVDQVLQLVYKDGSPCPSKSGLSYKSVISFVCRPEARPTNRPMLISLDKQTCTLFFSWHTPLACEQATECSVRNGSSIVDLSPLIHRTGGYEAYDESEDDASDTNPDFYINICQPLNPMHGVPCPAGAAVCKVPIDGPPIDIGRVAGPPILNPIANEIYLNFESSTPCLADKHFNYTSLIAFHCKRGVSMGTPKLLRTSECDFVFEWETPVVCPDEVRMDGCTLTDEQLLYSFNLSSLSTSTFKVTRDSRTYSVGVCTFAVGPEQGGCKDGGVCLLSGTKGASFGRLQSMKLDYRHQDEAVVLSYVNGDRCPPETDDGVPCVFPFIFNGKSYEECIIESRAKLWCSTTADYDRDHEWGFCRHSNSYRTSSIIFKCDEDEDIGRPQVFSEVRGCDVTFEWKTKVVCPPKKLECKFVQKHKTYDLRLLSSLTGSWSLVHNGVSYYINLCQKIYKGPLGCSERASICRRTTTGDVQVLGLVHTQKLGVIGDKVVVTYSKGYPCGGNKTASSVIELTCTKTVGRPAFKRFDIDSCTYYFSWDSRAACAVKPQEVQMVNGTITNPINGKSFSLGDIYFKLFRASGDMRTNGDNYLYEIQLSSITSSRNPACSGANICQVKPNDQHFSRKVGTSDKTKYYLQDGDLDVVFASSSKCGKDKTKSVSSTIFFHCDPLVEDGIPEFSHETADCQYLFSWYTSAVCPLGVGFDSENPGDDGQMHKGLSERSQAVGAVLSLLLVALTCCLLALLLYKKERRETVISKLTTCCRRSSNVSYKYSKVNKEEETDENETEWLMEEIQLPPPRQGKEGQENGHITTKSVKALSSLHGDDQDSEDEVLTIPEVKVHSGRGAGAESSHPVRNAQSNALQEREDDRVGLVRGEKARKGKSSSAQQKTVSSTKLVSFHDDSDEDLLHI", "settings": "cited from earlier work; for Kd: ligand affinity for IGF-2/CI-MPR, read-out: Binding Affinity (Apparent Kd; nM)"}, "[2]": {"settings": "human, in vivo; cited from earlier work"}, "[3]": {"target": "insulin receptor (Homo sapiens, UniProt P06213)", "settings": "compared to the IGF-2/CI-MPR; cited from earlier work"}, "[4]": {"target": "IGF-1 receptor (Homo sapiens, UniProt P08069)", "settings": "compared to the IGF-2/CI-MPR; cited from earlier work"}, "[5]": {"experiment": "Solubility and stability of protein preparations in acidic buffer", "type": "physicochemical", "excerpt": "(§1) The high-mannose type N-glycans on rhGAA is problematic because it is believed that these carbohydrates cause the protein to be rapidly cleared from the circulation via macrophage and splenic mannose receptors. […] Deglycosylation of rhGAA can be performed after the enzyme is modified with S-Hynic and purified (via size exclusion chromatography or dialysis to remove excess crosslinker). This strategy allows for complete deglycosylation of rhGAA over 1-5 days using EndoF or EndoH without affecting enzyme activity. The deglycosylated hydrazide-modified rhGAA is then conjugated to PEG4-benzaldehyde-modified IGF-2 peptides. Alternatively, rhGAA deglycosylation can be performed concurrently during the conjugation of PEG4-benzaldehyde-modified IGF-2 peptide to hydrazide-modified rhGAA using high concentrations of EndoF or EndoH. Deglycosylated, IGF2 peptide-conjugated rhGAA is then purified by gel filtration chromatography or dialysis to remove excess […] IGF-2 peptides and stored in acidic pH buffer (50 mM sodium phosphate, pH 6.2/100 mM NaCl/0.05% Polysorbate-80). The ideal method to remove high-mannose N-glycans from yeast-derived rhGAA would be to co-express EndoH with the lysosomal enzyme for deglycoylation in vivo prior to protein purification of rhGAA. […]"}, "[6]": {"tested_on": "lysosomal enzyme activity (rhGAA, I2S)", "experiment": "Enzyme activity of lysosomal enzyme after conjugation or deglycosylation", "type": "biochemical, human", "excerpt": "as §1, with “Polysorbate-80).” for “Polysorbate-80). The ideal method to remove high-mannose N-glycans from yeast-derived rhGAA would be to co-express EndoH with the lysosomal enzyme for deglycoylation in vivo prior to protein purification of rhGAA.”\nTo assess the functional effects of IGF2 peptide for the cellular uptake of exogenous lysosomal enzymes, the internalization of IGF2-conjugated rbGAA (vIGF2-rhGAA) was evaluated in L6 rat skeletal muscle myoblasts. […]"}, "[7]": {"tested_on": "serum IGF binding proteins (IGFBPs)", "experiment": "Binding to serum IGF binding proteins, inferred from uptake in serum-containing medium", "type": "cell-based", "settings": "inferred from internalization in medium with 10% FBS", "procedure": "To assess the functional effects of IGF2 peptide for the cellular uptake of exogenous lysosomal enzymes, the internalization of IGF2-conjugated rbGAA (vIGF2-rhGAA) was evaluated in L6 rat skeletal muscle myoblasts. Briefly, L6 myoblasts were expanded in T-75 flasks to confluence in DMEM medium containing 10% fetal bovine serum (FBS) at 37 C and a 5% CO2 environment. The cells were harvested via trypsin/EDTA and plated in 6-well tissue culture plates at a cell density of 3×10^5 cells per well and incubated in DMEM/10% […] medium. Two hours prior to the addition of lysosomal enzymes, the spent DMEM 10% FBS medium was replaced with 2.5 ml uptake medium (Ham's F-12/10% FBS/2 mM PIPES, pH 6.7). Unconjugated rhGAA and vIGF2-rhGAA were diluted to 0.5 mg/ml with 50 mM sodium phosphate, pH 6.5/100 mM NaCl/0.05%>Polysorbate-80 and sterilized through a 0.2 μm filter spin device (Costar). Unconjugated rhGAA was added to individual wells at final protein concentrations of 10-200 nM while vIGF2-rhGAA was added at 2-25 nM. To ensure that all wells had the same volume and correct protein concentration, 50 mM sodium phosphate, pH 6.5/100 mM NaCl/0.05% Polysorbate-80 buffer was added so that the total volume of enzyme and buffer was 0.2 ml for each sample."}, "[8]": {"tested_on": "Pompe disease", "settings": "40 mg/kg every other week; cited from earlier work"}},
  "note": "Where “and” joins values, the source holds several entries; their conditions need not be identical. Identical values can stand only once.",
  "data": [
    {"molecule": "O=C[C@@H](O)[C@@H](O)[C@H](O)[C@H](O)COP(=O)(O)O", "note": "[free M6P, mannose 6-phosphate]", "values": [
      {"measurement": "Kd", "setting": "[1]", "value": 7000, "unit": "nM"}
    ]},
    {"molecule": "WT hIGF-2: wildtype human insulin-like growth factor 2 peptide", "values": [
      {"measurement": "Kd", "setting": "[1]", "value": "0.03 to 0.2", "unit": "nM"},
      {"measurement": "fold higher affinity for IGF-2/CI-MPR than mono-M6P N-glycan", "setting": "[1]; relative to mono-M6P N-glycan", "value": "approximately 230,000 fold"},
      {"measurement": "safety in clinical trials", "setting": "[2]", "value": "shown to be safe"},
      {"measurement": "fold lower affinity for insulin receptor compared to IGF-2/CI-MPR", "setting": "[3]", "value": "~100", "unit": "fold"},
      {"measurement": "fold lower affinity for IGF-1 receptor compared to IGF-2/CI-MPR", "setting": "[4]", "value": "~230", "unit": "fold"}
    ]},
    {"molecule": "rhGAA: Recombinant human acid α-glucosidase", "values": [
      {"measurement": "solubility after removal of N-glycans", "setting": "[5]; deglycosylated with EndoF or EndoH (data not shown)", "value": "remain soluble"},
      {"measurement": "effect of chemical conjugation of variant IGF2 peptide on enzyme activity", "setting": "[6]; after conjugation of variant IGF2 peptide (data not shown)", "value": "did not affect enzyme activity"},
      {"measurement": "enzyme activity after removal of N-glycans", "setting": "[6]; deglycosylated with EndoF or EndoH, native conditions (data not shown)", "value": "completely active"}
    ]},
    {"molecule": "[del(1-4), Arg6, Leu27, Arg65] IGF-2 [variant IGF2 peptide]", "values": [
      {"measurement": "binding affinity to serum IGF binding proteins (IGFBPs)", "setting": "[7]", "value": "low binding affinity"},
      {"measurement": "stability of conjugated peptide in acidic buffers", "setting": "[5]; acidic buffers required for maintaining lysosomal enzyme activities", "value": "stable and maintains proper protein structure"}
    ]},
    {"molecule": "Myozyme: recombinant human acid α-glucosidase, rhGAA; Genzyme Corp.", "values": [
      {"measurement": "clinical effectiveness in Pompe disease", "setting": "[8]", "value": "only moderately effective"}
    ]},
    {"molecule": "[Leu27] hIGF-2: human IGF-2 with substitution of leucine for tyrosine at position 27", "values": [
      {"measurement": "Kd", "setting": "[1]", "value": "0.05 nM and 0.06 nM"}
    ]}
  ]
}
